Experimental findings from publication PMC3335016, “Analysis of the Nse3/MAGE-Binding Domain of the Nse4/EID Family Proteins” (PLoS ONE, 2012) are described below.

B1: EID2 WT peptide (aa 197-217) [modified: biotin, linked via the SGSG spacer; biotin, linked via the SGSG spacer] [human] / His-S-MAGEC2(129-339) [human] (parent complex)
chain 1: QRNPHRVDLDILTFTIALTAS
chain 2: GLPDSESSFTYTLDEKVAELVEFLLLKYEAEEPVTEAEMLMIVIKYKDYFPVILKRAREFMELLFGLALIEVGPDHFCVFANTVGLTDEGSDDEGMPENSLLIIILSVIFIKGNCASEEVIWEVLNAVGVYAGREHFVYGEPRELLTKVWVQGHYLEYREVPHSSPPYYEFLWGPRAHSESIKKKVLEFLAKLNNTVPSSFPSWYKDALKD

This assay covers variants of B1. Put plainly: PEPSCAN-ELISA; parent: 100; read off a plot. A general note: In an ELISA, binding on a coated surface is turned into a signal by an enzyme label.
In the case of chain 1 D8A, the percent of parent is about 86%.

As for chain 1 N3A, the percent of parent was about 58%.

In the case of chain 1 T15A, the percent of parent was about 67%.

On to chain 1 H5A, for which the percent of parent is about 38%.

In the case of chain 1 P4A, the percent of parent was about 45%.

As for chain 1 T13A, the percent of parent was about 46%.

For chain 1 V7A, the percent of parent was about 34%.
